Assay results reported in article PMC9818449.

Molecular target: VN-HOXA9 (human) (UniProt P31269)
Experiment: split reporter (BiFC, NanoBiT); individual BiFC in live HEK293T cells: plix-VN-HOXA9, plix-CC-ORF and plix-mCherry co-transfected, 18 h with doxycycline 100 ng/mL, confocal imaging; HOXA9/PBX1 as calibrator

UniProt P31269, sequence (P31269 whole entry): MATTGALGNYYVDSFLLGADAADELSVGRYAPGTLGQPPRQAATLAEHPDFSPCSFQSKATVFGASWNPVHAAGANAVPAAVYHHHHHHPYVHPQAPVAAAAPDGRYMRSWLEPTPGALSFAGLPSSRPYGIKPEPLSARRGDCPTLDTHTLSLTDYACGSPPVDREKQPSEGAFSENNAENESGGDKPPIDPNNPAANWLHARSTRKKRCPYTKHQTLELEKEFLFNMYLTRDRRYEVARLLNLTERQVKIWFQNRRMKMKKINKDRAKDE

CC-C6orf201 (from UniProt B3KW47 1-115) (natural protein)
BiFC fluorescence as percent of HOXA9/PBX1 BiFC: < 15%
